Measurements taken from patent US20150175708A1 (Eli Lilly, published 2015).

How the values were obtained:
[1] = biological target: T1, human EGFR extracellular domain (EGFR-ECD) (human, UniProt P00533 25-645); experiment: SPR (Biacore), antibody captured on protein A chip, EGFR-ECD in solution, 25 C, 1:1 model
T1 construct: extracellular domain; also called human EGFR-ECD

[2] = biological target: extracellular domain of human MET (MET-ECD) (human, UniProt P08581 25-932); experiment: SPR (Biacore), antibody captured on protein A chip, MET-ECD in solution, 25 C, 1:1 model
[3] = biological target: T2, MET on the cell surface of human tumor cell lines (human, UniProt P08581 25-1390); experiment: cell-based or functional assay
[4] = biological target: EGFR on the cell surface of human tumor cell lines (human, UniProt P00533 25-1210); experiment: cell-based or functional assay
[5] = biological target: T2, MET on the cell surface of human tumor …; experiment: cell-based or functional assay; remark: listed apart in the source

T2 sequence (P08581 25-1390): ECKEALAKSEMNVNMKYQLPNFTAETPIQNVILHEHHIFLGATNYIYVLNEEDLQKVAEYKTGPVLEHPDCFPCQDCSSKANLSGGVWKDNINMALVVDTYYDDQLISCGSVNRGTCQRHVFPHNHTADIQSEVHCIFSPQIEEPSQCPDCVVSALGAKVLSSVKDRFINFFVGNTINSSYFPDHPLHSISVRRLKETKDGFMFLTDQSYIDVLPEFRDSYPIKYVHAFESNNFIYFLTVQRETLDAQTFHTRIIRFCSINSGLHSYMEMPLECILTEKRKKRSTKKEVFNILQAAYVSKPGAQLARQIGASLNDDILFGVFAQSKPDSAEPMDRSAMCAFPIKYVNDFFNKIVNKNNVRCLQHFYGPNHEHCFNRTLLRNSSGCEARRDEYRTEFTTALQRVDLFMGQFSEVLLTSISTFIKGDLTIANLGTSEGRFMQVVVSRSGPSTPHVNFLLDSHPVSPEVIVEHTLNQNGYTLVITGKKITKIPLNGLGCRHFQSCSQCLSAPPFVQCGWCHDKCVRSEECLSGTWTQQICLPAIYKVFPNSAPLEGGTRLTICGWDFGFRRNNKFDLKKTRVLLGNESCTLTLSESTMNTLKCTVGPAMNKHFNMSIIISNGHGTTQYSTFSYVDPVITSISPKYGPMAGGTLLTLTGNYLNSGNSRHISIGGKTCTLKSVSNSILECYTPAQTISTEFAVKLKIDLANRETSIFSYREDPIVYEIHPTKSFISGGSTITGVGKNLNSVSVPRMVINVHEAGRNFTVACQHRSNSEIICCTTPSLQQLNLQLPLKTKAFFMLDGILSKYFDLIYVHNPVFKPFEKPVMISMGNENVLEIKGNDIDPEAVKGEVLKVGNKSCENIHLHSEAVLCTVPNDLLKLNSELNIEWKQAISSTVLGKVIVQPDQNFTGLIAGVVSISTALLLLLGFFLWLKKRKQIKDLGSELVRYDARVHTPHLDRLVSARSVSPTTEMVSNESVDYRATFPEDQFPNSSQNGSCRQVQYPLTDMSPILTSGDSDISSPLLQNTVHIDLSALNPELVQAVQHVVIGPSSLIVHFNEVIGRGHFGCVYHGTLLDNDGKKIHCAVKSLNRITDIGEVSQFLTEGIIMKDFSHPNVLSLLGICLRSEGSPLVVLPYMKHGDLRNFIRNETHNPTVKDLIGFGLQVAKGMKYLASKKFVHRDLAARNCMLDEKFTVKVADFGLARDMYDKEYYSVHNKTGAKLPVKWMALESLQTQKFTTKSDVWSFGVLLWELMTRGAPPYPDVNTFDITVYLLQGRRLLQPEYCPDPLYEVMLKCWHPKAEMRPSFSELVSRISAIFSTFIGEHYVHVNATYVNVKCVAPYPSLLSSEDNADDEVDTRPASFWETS
Chain of extracellular domain of human MET (MET-ECD) (P08581 25-932): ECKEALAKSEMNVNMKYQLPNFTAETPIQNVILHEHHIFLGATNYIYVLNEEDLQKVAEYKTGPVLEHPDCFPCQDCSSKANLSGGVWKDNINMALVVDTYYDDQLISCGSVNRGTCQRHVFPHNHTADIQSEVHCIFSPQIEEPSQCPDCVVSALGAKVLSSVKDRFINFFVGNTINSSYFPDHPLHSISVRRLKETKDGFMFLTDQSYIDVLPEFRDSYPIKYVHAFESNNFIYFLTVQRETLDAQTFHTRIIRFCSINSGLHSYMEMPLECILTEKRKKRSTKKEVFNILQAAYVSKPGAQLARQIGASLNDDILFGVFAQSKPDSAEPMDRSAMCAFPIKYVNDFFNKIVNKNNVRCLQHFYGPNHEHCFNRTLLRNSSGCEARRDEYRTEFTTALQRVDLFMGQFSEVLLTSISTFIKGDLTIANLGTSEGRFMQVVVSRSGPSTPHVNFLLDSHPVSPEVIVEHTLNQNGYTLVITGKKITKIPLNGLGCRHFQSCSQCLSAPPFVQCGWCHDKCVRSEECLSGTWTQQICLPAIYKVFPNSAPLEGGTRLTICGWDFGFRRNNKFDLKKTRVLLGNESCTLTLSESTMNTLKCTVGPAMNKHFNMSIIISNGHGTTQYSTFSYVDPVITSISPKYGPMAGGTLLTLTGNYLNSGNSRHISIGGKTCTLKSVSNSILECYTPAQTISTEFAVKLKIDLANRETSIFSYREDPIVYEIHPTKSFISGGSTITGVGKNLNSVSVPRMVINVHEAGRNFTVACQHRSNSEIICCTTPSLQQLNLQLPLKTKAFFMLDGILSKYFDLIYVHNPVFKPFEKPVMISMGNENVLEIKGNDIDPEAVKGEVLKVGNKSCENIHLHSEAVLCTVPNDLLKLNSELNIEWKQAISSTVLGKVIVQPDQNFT

Binder | Kd [1] | koff [1] | kon [1] | Kd [2] | koff [2] | kon [2] | average % of cell viability, H1666 cells, antibody 0.02 nM [4] | average % of cell viability, H1666 cells, antibody 0.05 nM [4] | average % of cell viability, H1666 cells, antibody 0.14 nM [4] | average % of cell viability, H1666 cells, antibody 0.41 nM [4] | average % of cell viability, H1666 cells, antibody 1.23 nM [4] | average % of cell viability, H1666 cells, antibody 3.70 nM [4] | average % of cell viability, H1666 cells, antibody 11.11 nM [4] | average % of cell viability, H1666 cells, antibody 33.33 nM [4] | average % of cell viability, H1666 cells, antibody 100 nM [4] | average % of cell viability (CellTiter-Glo), H596 cells + 50 ng/mL HGF, antibody 0.4 nM [5] | average % of cell viability (CellTiter-Glo), H596 cells + 50 ng/mL HGF, antibody 1.2 nM [5] | average % of cell viability (CellTiter-Glo), H596 cells + 50 ng/mL HGF, antibody 3.7 nM [5] | average % of cell viability (CellTiter-Glo), H596 cells + 50 ng/mL HGF, antibody 11.1 nM [5] | average % of cell viability (CellTiter-Glo), H596 cells + 50 ng/mL HGF, antibody 33.3 nM [5] | also measured
anti-MET/EGFR multifunctional antibody NH-YK (bispecific antibody, human IgG4 S228P, kappa, F234A L235A, Tetravalent: anti-MET C8-H241 human IgG4 with an anti-EGFR YK scFv fused by a glycine-rich linker to the N-terminus of each heavy chain) heavy: not shown light: DIQMTQSPSSLSASVGDRVTITCSVSSSVSSIYLHWYQQKPGKAPKLLIYSTSNLASGVPSRFSGSGSGTDFTLTISSLQPEDFATYYCQVYSGYPLTFGGGTKVEIKRTVAAPSVFIFPPSDEQLKSGTASVVCLLNNFYPREAKVQWKVDNALQSGNSQESVTEQDSKDSTYSLSSTLTLSKADYEKHKVYACEVTHQGLSSPVTKSFNRGEC | 0.19 nM | 0.00075 s⁻¹ | 4e+06 M⁻¹ s⁻¹ | 0.84 nM | 6.3e-05 s⁻¹ | 75000 M⁻¹ s⁻¹ | 106% | 105% | 87.2% | 65.5% | 45.6% | 36.9% | 31.9% | 27.9% | 26.4% | 113% | 108% | 104% | 107% | 101% | % cell surface MET remaining, H441 cells, 50 nM antibody overnight, FACS [3]: 58%; AVG of MFI (staining of cell surface MET), H441 cells, 50 nM antibody overnight, FACS [3]: 44.9 MFI; average % of cell viability (CellTiter-Glo), H596 cells + 50 ng/mL HGF, antibody 100 nM [5]: 102%
anti-MET/EGFR multifunctional antibody H9 (bispecific antibody, human IgG4 S228P, kappa, F234A L235A, Tetravalent: anti-MET C8-H241 human IgG4 with an anti-EGFR H9 scFv fused to the heavy chain C-terminus) heavy: not shown light: DIQMTQSPSSLSASVGDRVTITCSVSSSVSSIYLHWYQQKPGKAPKLLIYSTSNLASGVPSRFSGSGSGTDFTLTISSLQPEDFATYYCQVYSGYPLTFGGGTKVEIKRTVAAPSVFIFPPSDEQLKSGTASVVCLLNNFYPREAKVQWKVDNALQSGNSQESVTEQDSKDSTYSLSSTLTLSKADYEKHKVYACEVTHQGLSSPVTKSFNRGEC | 0.32 nM | 0.00018 s⁻¹ | 570000 M⁻¹ s⁻¹ | 1.15 nM | 0.000109 s⁻¹ | 95000 M⁻¹ s⁻¹ | – | – | – | – | – | – | – | – | – | – | – | – | – | – | –

The remaining binders from weak to strong by Kd [1], led by results:

Kd [1] | koff [1] | kon [1] | Kd [2] | koff [2] | kon [2] | Binder | average % of cell viability, H1666 cells, antibody 0.02 nM [4] | average % of cell viability, H1666 cells, antibody 0.05 nM [4] | average % of cell viability, H1666 cells, antibody 0.14 nM [4] | average % of cell viability, H1666 cells, antibody 0.41 nM [4] | average % of cell viability, H1666 cells, antibody 1.23 nM [4] | average % of cell viability, H1666 cells, antibody 3.70 nM [4] | average % of cell viability, H1666 cells, antibody 11.11 nM [4] | average % of cell viability, H1666 cells, antibody 33.33 nM [4] | average % of cell viability, H1666 cells, antibody 100 nM [4] | average % of cell viability (CellTiter-Glo), H596 cells + 50 ng/mL HGF, antibody 0.4 nM [5] | average % of cell viability (CellTiter-Glo), H596 cells + 50 ng/mL HGF, antibody 1.2 nM [5] | average % of cell viability (CellTiter-Glo), H596 cells + 50 ng/mL HGF, antibody 3.7 nM [5] | average % of cell viability (CellTiter-Glo), H596 cells + 50 ng/mL HGF, antibody 11.1 nM [5] | average % of cell viability (CellTiter-Glo), H596 cells + 50 ng/mL HGF, antibody 33.3 nM [5] | also measured
0.44 nM | 0.00057 s⁻¹ | 1.3e+06 M⁻¹ s⁻¹ | 0.26 nM | 3.3e-05 s⁻¹ | 126000 M⁻¹ s⁻¹ | anti-MET/EGFR multifunctional antibody YK (bispecific antibody, human IgG4 S228P, kappa, F234A L235A, Tetravalent: anti-MET C8-H241 human IgG4 with an anti-EGFR YK scFv fused to the heavy chain C-terminus) heavy: not shown light: DIQMTQSPSSLSASVGDRVTITCSVSSSVSSIYLHWYQQKPGKAPKLLIYSTSNLASGVPSRFSGSGSGTDFTLTISSLQPEDFATYYCQVYSGYPLTFGGGTKVEIKRTVAAPSVFIFPPSDEQLKSGTASVVCLLNNFYPREAKVQWKVDNALQSGNSQESVTEQDSKDSTYSLSSTLTLSKADYEKHKVYACEVTHQGLSSPVTKSFNRGEC | – | – | – | – | – | – | – | – | – | – | – | – | – | – | –
0.1 nM | 0.00018 s⁻¹ | 1.8e+06 M⁻¹ s⁻¹ | 0.75 nM | 7.9e-05 s⁻¹ | 105000 M⁻¹ s⁻¹ | anti-MET/EGFR multifunctional antibody NH-H9 (bispecific antibody, human IgG4 S228P, kappa, F234A L235A, Tetravalent: anti-MET C8-H241 human IgG4 with an anti-EGFR H9 scFv fused to the N-terminus of each heavy chain) heavy: not shown light: DIQMTQSPSSLSASVGDRVTITCSVSSSVSSIYLHWYQQKPGKAPKLLIYSTSNLASGVPSRFSGSGSGTDFTLTISSLQPEDFATYYCQVYSGYPLTFGGGTKVEIKRTVAAPSVFIFPPSDEQLKSGTASVVCLLNNFYPREAKVQWKVDNALQSGNSQESVTEQDSKDSTYSLSSTLTLSKADYEKHKVYACEVTHQGLSSPVTKSFNRGEC | 105% | 100% | 77.8% | 52.9% | 38.6% | 31.6% | 26.6% | 24.1% | 23.1% | 107% | 102% | 103% | 105% | 102% | average % of cell viability (CellTiter-Glo), H596 cells + 50 ng/mL HGF, antibody 100 nM [5]: 102%
